Data taken from article PMC9482650, “Quantitative fragmentomics allow affinity mapping of interactomes” (Nature Communications, 2022).

Experiments:
Assay in all cases: holdup assay
Set-up in all cases: key: below the threshold = too weak to quantify, mostly under pKd 3.1 to 4
Conditions in all cases: plain residues with an end cap or a label only (N-terminal biotin on a linker: ado-ado)
APBA1_2, Q02410 = target: T1, APBA1_2, Q02410
T1 sequence (Q02410 742-832, limits assumed, looked up): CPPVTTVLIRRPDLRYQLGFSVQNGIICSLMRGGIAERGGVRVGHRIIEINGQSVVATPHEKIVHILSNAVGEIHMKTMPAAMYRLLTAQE

DLG5_1, Q8TDM6 = target: DLG5_1, Q8TDM6
Chain of DLG5_1, Q8TDM6 (Q8TDM6 617-713): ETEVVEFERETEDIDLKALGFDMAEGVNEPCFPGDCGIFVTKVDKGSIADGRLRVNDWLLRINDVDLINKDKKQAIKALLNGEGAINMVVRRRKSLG

DVL3, Q92997 = target: T2, DVL3, Q92997
T2 sequence (Q92997 244-331, limits assumed, looked up): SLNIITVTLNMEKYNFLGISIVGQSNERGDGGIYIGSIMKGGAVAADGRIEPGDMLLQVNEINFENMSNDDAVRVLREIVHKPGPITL

GOPC, Q9HD26 = target: GOPC, Q9HD26
GRIP1_7, Q9Y3R0 = target: T3, GRIP1_7, Q9Y3R0
T3 sequence (Q9Y3R0 999-1096, limits assumed, looked up): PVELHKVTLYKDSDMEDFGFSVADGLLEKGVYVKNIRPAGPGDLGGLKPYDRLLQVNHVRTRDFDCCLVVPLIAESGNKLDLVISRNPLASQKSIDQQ

GRIP2_3, Q9C0E4 = target: GRIP2_3, Q9C0E4
Chain of GRIP2_3, Q9C0E4 (Q9C0E4 238-339): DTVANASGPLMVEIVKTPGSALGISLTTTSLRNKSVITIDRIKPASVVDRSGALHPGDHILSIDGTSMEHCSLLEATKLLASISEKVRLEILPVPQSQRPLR

HTRA4, P83105 = target: T4, HTRA4, P83105
T4 sequence (P83105 378-476, limits assumed, looked up): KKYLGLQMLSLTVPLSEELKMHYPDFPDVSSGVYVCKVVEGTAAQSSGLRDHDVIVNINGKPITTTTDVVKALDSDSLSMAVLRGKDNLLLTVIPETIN

Inadl_3, Q8NI35 = target: Inadl_3, Q8NI35
Chain of Inadl_3, Q8NI35 (Q8NI35 359-469): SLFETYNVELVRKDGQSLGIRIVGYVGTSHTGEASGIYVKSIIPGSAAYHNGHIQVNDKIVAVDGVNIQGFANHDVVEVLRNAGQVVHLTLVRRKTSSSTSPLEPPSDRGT

LIMK2, P53671 = target: LIMK2, P53671
Chain of LIMK2, P53671 (P53671 143-248): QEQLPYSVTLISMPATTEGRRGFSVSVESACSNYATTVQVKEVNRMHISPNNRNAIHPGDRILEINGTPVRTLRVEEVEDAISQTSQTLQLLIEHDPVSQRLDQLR

LNX2_2, Q8N448 = target: T5, LNX2_2, Q8N448
T5 sequence (Q8N448 334-432, limits assumed, looked up): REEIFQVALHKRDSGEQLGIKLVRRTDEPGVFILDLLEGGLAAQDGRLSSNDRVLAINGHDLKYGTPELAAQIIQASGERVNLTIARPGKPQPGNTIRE

MPDZ_12, O75970 = target: T6, MPDZ_12, O75970
T6 sequence (O75970 1857-1958, limits assumed, looked up): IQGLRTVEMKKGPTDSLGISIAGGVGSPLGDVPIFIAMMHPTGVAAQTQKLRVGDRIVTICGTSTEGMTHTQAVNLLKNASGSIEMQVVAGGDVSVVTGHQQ

MPP2, Q14168 = target: T7, MPP2, Q14168
T7 sequence (Q14168 180-250, limits assumed, looked up): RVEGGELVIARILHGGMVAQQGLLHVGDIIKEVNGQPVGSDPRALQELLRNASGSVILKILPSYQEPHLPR

MPP7, Q5T2T1 = target: T8, MPP7, Q5T2T1
T8 sequence (Q5T2T1 134-230, limits assumed, looked up): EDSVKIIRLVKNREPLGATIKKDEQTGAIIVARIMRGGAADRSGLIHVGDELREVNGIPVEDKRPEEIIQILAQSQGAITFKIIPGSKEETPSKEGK

PDZD7_3, Q9H5P4 = target: T9, PDZD7_3, Q9H5P4
T9 sequence (Q9H5P4 857-944, limits assumed, looked up): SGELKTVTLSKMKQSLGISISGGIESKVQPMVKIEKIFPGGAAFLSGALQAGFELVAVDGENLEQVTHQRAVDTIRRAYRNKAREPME

SCRIB_1, Q14160 = target: SCRIB_1, Q14160
Chain of SCRIB_1, Q14160 (Q14160 718-814): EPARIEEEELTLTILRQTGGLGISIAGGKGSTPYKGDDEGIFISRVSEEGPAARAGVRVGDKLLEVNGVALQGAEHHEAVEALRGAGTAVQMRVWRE

APBA2_1, Q99767 = target: T10, APBA2_1, Q99767
T10 sequence (Q99767 563-664, limits assumed, looked up): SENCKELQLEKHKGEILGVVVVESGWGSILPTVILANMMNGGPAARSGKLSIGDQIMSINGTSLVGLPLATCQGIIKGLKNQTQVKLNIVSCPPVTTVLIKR

ARHGEF11, O15085 = target: T11, ARHGEF11, O15085
T11 sequence (O15085 42-136, limits assumed, looked up): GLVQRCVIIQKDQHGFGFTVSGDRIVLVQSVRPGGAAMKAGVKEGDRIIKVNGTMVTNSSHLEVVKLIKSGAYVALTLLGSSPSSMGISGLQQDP

ARHGEF12, Q9NZN5-2 = target: ARHGEF12, Q9NZN5-2
Chain of ARHGEF12, Q9NZN5-2 (Q9NZN5 other isoform, or with tags, fused parts or gaps): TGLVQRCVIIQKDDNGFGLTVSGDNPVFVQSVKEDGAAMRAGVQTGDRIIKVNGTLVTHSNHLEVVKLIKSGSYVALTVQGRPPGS

HTRA2, O43464 = target: HTRA2, O43464
Chain of HTRA2, O43464 (O43464 355-458): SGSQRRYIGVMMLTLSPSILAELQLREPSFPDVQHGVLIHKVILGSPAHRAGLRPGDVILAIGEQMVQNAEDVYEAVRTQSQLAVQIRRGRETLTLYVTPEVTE

MAST2, Q6P0Q8 = target: MAST2, Q6P0Q8
Chain of MAST2, Q6P0Q8 (Q6P0Q8 1099-1202): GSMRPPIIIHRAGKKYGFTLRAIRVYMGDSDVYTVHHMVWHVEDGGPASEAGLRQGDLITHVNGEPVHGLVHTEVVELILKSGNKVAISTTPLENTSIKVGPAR

NHERF3_3, Q5T2W1 = target: T12, NHERF3_3, Q5T2W1
T12 sequence (Q5T2W1 238-333, limits assumed, looked up): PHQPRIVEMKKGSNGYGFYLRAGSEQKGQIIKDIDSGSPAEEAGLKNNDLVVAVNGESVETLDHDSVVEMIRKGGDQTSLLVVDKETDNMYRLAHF

SNTG1, Q9NSN8 = target: T13, SNTG1, Q9NSN8
T13 sequence (Q9NSN8 52-150, limits assumed, looked up): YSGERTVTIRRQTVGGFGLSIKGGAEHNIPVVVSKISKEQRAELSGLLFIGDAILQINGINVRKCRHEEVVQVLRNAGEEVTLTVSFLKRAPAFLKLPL

TIAM2, Q8IVF5 = target: T14, TIAM2, Q8IVF5
T14 sequence (Q8IVF5 885-986, limits assumed, looked up): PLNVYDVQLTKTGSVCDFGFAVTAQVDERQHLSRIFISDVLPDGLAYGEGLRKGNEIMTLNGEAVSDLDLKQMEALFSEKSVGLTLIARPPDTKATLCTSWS

TJP1_2, Q07157 = target: TJP1_2, Q07157
Chain of TJP1_2, Q07157 (Q07157 181-274): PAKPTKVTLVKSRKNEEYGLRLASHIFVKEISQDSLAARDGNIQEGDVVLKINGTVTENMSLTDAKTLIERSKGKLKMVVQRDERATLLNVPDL

| Binder | pKd (APBA1_2, Q02410) | pKd (DLG5_1, Q8TDM6) | pKd (DVL3, Q92997) | pKd (GOPC, Q9HD26) | pKd (GRIP1_7, Q9Y3R0) | pKd (GRIP2_3, Q9C0E4) | pKd (HTRA4, P83105) | pKd (Inadl_3, Q8NI35) | pKd (LIMK2, P53671) | pKd (LNX2_2, Q8N448) | pKd (MPDZ_12, O75970) | pKd (MPP2, Q14168) | pKd (MPP7, Q5T2T1) | pKd (PDZD7_3, Q9H5P4) | pKd (SCRIB_1, Q14160) | pKd (APBA2_1, Q99767) | pKd (ARHGEF11, O15085) | pKd (ARHGEF12, Q9NZN5-2) | pKd (MAST2, Q6P0Q8) | pKd (NHERF3_3, Q5T2W1) | other results |
| --- | --- | --- | --- | --- | --- | --- | --- | --- | --- | --- | --- | --- | --- | --- | --- | --- | --- | --- | --- | --- | --- |
| KSGKQTMLVV [TRIM29, Q14134;Q14134-2] | below the threshold | 3.93 | below the threshold | below the threshold | below the threshold | below the threshold | 4.14 | below the threshold | below the threshold | 5.19 | below the threshold | below the threshold | below the threshold | below the threshold | below the threshold |  |  |  |  |  |  |
| YLEPVLSSEL [ATP2A2, P16615;P16615-3] | below the threshold | below the threshold | below the threshold | below the threshold | below the threshold | below the threshold | below the threshold | below the threshold | below the threshold | below the threshold |  | below the threshold | below the threshold | 4.91 | 4.38 | below the threshold | 4.55 | 5.38 | 5.81 | below the threshold | pKd (HTRA2, O43464): below the threshold; pKd (SNTG1, Q9NSN8): below the threshold; pKd (TIAM2, Q8IVF5): 3.98; pKd (TJP1_2, Q07157): below the threshold |
| VYPNAKVELV [PDLIM4_iso2, P50479;P50479-1] | 3.91 | below the threshold | below the threshold | below the threshold | below the threshold | below the threshold | 4.55 |  | below the threshold | 4.62 | below the threshold | below the threshold | below the threshold | 3.99 | below the threshold | below the threshold | below the threshold | below the threshold | below the threshold | below the threshold | pKd (SNTG1, Q9NSN8): below the threshold; pKd (TIAM2, Q8IVF5): below the threshold |
